Reference: patent publication US20260193366A1 (APOGEE THERAPEUTICS, published 2026)

T1: hIL-4Rα on cells (human, UniProt P24394 26-825)
T1 sequence: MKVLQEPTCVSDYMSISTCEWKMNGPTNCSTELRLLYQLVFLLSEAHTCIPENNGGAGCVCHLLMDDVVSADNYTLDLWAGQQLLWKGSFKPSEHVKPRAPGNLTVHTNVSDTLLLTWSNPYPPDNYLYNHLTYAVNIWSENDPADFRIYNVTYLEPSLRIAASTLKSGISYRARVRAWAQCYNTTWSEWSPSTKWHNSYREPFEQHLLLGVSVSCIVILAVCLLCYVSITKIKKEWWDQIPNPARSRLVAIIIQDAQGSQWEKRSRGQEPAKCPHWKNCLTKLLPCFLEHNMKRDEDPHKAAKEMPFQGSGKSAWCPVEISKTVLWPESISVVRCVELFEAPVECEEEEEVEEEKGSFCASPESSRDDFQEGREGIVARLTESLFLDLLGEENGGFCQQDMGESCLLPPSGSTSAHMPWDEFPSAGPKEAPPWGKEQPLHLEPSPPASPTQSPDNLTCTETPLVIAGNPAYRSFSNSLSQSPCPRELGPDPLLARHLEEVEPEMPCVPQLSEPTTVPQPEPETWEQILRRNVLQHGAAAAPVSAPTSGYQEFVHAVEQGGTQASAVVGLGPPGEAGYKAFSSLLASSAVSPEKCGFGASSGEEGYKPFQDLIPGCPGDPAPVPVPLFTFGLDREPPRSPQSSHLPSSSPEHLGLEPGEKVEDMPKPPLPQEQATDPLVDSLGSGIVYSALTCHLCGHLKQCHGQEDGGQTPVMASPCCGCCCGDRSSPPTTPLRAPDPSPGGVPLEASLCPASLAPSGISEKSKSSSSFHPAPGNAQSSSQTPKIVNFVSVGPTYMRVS

T2: cynomolgus monkey IL-4Rα (cynomolgus monkey, UniProt P24394 26-231 (human entry), limits assumed)
T2 construct: also called Cyno IL-4Rα; cyIL-4Rα
T2 chain: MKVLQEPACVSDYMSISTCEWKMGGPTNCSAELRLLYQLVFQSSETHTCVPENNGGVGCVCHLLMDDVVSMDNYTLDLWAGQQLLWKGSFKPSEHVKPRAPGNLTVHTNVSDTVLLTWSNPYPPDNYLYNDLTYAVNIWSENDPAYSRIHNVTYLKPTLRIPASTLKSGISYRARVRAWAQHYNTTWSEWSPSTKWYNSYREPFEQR

T3: human IL-4Rα (human, UniProt P24394 26-232)
T3 construct: also called Hu IL-4Rα; hIL-4Rα
T3 sequence: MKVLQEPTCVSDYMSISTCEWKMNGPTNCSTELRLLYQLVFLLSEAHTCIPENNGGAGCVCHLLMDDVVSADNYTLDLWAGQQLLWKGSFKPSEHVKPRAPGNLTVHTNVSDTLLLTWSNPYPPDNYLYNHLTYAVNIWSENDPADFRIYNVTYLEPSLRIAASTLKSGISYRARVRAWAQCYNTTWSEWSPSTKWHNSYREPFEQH


How the values were obtained:
[1] = target: T1, hIL-4Rα on cells; experiment: cell-based or functional assay
[2] = target: T1, hIL-4Rα on cells; experiment: cell-based or functional assay; remark: listed apart in the source
[3] = target: T1, hIL-4Rα on cells; experiment: FACS on HEK293 cells, competitor biotin-hIL-4;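 note: HEK293 cells stably co-expressing hIL-13Rα and hIL-4Rα, stained for 1 h at 4 °C, read-out as mean fluorescence intensity by flow cytometry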
Method: Briefly, HEK293 previously transduced to stably express both hIL-13Rα and hIL-4Rα were cultured and harvested. Cells were seeded at 200,000 cells in 100 uL per well. Cells were washed and the supernatant discarded. […] The cells were stained in this mixture at 4° C. for 1 hour. […] Cells were incubated 4° C. for 1 hour, protected from light. Cells were then washed and the MFI of cells in each well were recorded by FACS using a BD FACSCanto II. Subsequent data were analyzed using GraphPad Prism.

[4] = target: T1, hIL-4Rα on cells; experiment: FACS on HEK293 cells, competitor biotin-hIL-13;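 note: stably transduced cells co-expressing both receptor chains, stained cold, with cell-bound signal read as mean fluorescence intensity by flow cytometry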
[5] = target: T1, hIL-4Rα on cells; experiment: cell-based or functional assay; remark: listed apart in the source
[6] = target: T2, cynomolgus monkey IL-4Rα; experiment: SPR, Carterra LSA;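 note: antibodies captured on an anti-human Fc sensor chip, antigen injected at several concentrations, association and dissociation rates fitted with a 1:1 Langmuir model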
Method: (§1) Binding affinity (KD) of antibodies to human and cynomolgus monkey IL-4Rα was determined through surface plasmon resonance (SPR) using a Carterra LSA. Briefly, an HC30M sensor chip that was previously functionalized with a polyclonal mixture of goat anti-human Fc antibody and used to capture purified antibodies at a level between 100-1000 RLU. […] Regeneration of the chip between different concentrations of antigen was performed with 200 mM phosphoric acid and antibody was captured again as previously described. Association and dissociation rate constants were subsequently determined through fitting to a 1:1 Langmuir binding model using the Kinetics Software from Carterra from which a KD value was derived.

[7] = target: T3, human IL-4Rα; experiment: SPR, Carterra LSA;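 note: antibodies captured on an anti-human Fc sensor chip, antigen injected at several concentrations, association and dissociation rates fitted with a 1:1 Langmuir model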
Method: as §1

Relative Inhibition of IL-4 induced pSTAT6 IC50 [1] | Relative Inhibition of IL-13 induced pSTAT6 IC50 [1] | Relative Inhibition of IL-4 induced TARC IC50 [2] | Relative Inhibition of IL-13 induced TARC IC50 [2] | Relative Blockade of IL-4 Binding IC50 [3] | Relative Blockade of IL-13 Binding IC50 [4] | Relative Inhibition of IL-4 induced TF-1 Proliferation IC50 [5] | Relative Inhibition of IL-13 induced TF-1 Proliferation IC50 [5] | KD Relative to Dupilumab [6] | Kd [6] [nM] | KD Relative to Dupilumab [7] | Kd [7] [nM] | Binder
0.957 relative to dupilumab | 2.16 relative to dupilumab | 1.78 relative to dupilumab | 0.999 relative to dupilumab | 1.18 relative to dupilumab | 1.22 relative to dupilumab | 1.05 relative to dupilumab | 1.25 relative to dupilumab | 0.61 | 385 | 0.99 | 0.0112 | Construct 36 (mAb469) (antibody, IgG4, V domains shown, VH/VL only) VH: EVQLVESGGGLEQPGGSLRLSCAGSGFTFRDFAMTWVRQAPGKGLEWVSSISGSGGNIYYADSVKGRFTISRDNSKNTLYLQMNSLRAEDTAVYYCAKDRLSKTIRPRYYGLDVWGQGTTVTVSS VL: DIVMTQSPLSLPVTPGEPASISCRSSQSLLYSIGKNYVDWYLQKSGQSPQLLIYEGNNRASGVPDRFSGSGSGTDFTLKISRVEAEDVGFYYCMQSLTSPYTFGQGTKLEIK
0.81 relative to dupilumab | 2.17 relative to dupilumab | 1.65 relative to dupilumab | 5.23 relative to dupilumab | 1.09 relative to dupilumab | 1.05 relative to dupilumab | 1.18 relative to dupilumab | 1.21 relative to dupilumab | 0.27 | 168 | 0.92 | 0.0104 | Construct 39 (mAb473) (antibody, IgG4, V domains shown, VH/VL only) VH: EVQLVESGGGLEQPGGSLRLSCAGSGFTFRDSAMTWVRQAPGKGLEWVSSISGSGDNTYYADSVKGRFTISRDNSKNTLYLQMNSLRAEDTAVYYCAKDRLSITVRPRYYGLDVWGQGTTVTVSS VL: DIVMTQSPLSLPVTPGEPASISCRSSQSLLYSIGKNYVDWYLQKSGQSPQLLIYLGNKRASGVPDRFSGSGSGTDFTLKISRVEAEDVGFYYCMQALGSPYTFGQGTKLEIK
1.18 relative to dupilumab | 1.97 relative to dupilumab | 1.53 relative to dupilumab | 1.35 relative to dupilumab | 1.09 relative to dupilumab | 1.15 relative to dupilumab | 0.82 relative to dupilumab | 1.15 relative to dupilumab | 0.39 | 248 | 0.86 | 0.00973 | Construct 41 (mAb478) (antibody, IgG4, V domains shown, VH/VL only) VH: EVQLVESGGGLEQPGGSLRLSCAGSGFTFRDFAMTWVRQAPGKGLEWVSSISGGGGNTYYADSVKGRFTISRDNSKNTLYLQMNSLRAEDTAVYYCAKDRVSITIRPRYYGLDVWGQGTTVTVSS VL: DIVMTQSPLSLPVTPGEPASISCTASQSLLYSIGYNYVDWYLQKSGQSPQLLIYLGNKRASGVPDRFSGSGSGTDFTLKISRVEAEDVGFYYCMQAYNSPYTFGQGTKLEIK
0.81 relative to dupilumab | 2.78 relative to dupilumab | 2.02 relative to dupilumab | 1.62 relative to dupilumab | 1.32 relative to dupilumab | 1.34 relative to dupilumab | 1.19 relative to dupilumab | 1.19 relative to dupilumab | 0.25 | 158 | 0.98 | 0.0111 | Construct 42 (mAb481) (antibody, IgG4, V domains shown, VH/VL only) VH: EVQLVESGGGLEQPGGSLRLSCAGSGFTFRTYAMTWVRQAPGKGLEWVSSISGDGSNTYYADSVKGRFTISRDNSKNTLYLQMNSLRAEDTAVYYCAKDRVSITIRPRYYGLDVWGQGTTVTVSS VL: DIVMTQSPLSLPVTPGEPASISCTASQSLLYSIGYNYVDWYLQKSGQSPQLLIYLGNKRASGVPDRFSGSGSGTDFTLKISRVEAEDVGFYYCMQALTTPYTFGQGTKLEIK
0.713 relative to dupilumab | 1.22 relative to dupilumab | 1.16 relative to dupilumab | 0.868 relative to dupilumab | 1.08 relative to dupilumab | 1.05 relative to dupilumab | 0.943 relative to dupilumab | 0.919 relative to dupilumab | 0.23 | 143 | 1.03 | 0.0116 | Construct 37 (mAb470) (antibody, IgG4, V domains shown, VH/VL only) VH: EVQLVESGGGLEQPGGSLRLSCAGSGFTFRTYAMTWVRQAPGKGLEWVSSISGGGGNTYYADSVKGRFTISRDNSKNTLYLQMNSLRAEDTAVYYCAKDRLSVTVRPRYYGLDVWGQGTTVTVSS VL: DIVMTQSPLSLPVTPGEPASISCRASQSLLYSVGYNYVDWYLQKSGQSPQLLIYLGNNRASGVPDRFSGSGSGTDFTLKISRVEAEDVGFYYCMQSLTSPYTFGQGTKLEIK
1.18 relative to dupilumab | 3.76 relative to dupilumab | 2.53 relative to dupilumab | 5.72 relative to dupilumab | 1.21 relative to dupilumab | 1.23 relative to dupilumab | 1.15 relative to dupilumab | 1.29 relative to dupilumab | 2.03 | 1280 | 1.11 | 0.0125 | Construct 44 (mAb485) (antibody, IgG4, V domains shown, VH/VL only) VH: EVQLVESGGGLEQPGGSLRLSCAGSGFTFRDFAMTWVRQAPGKGLEWVSSISGSGGNIYYADSVKGRFTISRDNSKNTLYLQMNSLRAEDTAVYYCAKDRLSKTIRPRYYGLDVWGQGTTVTVSS VL: DIVMTQSPLSLPVTPGEPASISCRSTQSLLYSIGKNYVDWYLQKSGQSPQLLIYEGNNRASGVPDRFSGSGSGTDFTLKISRVEAEDVGFYYCMQSLTSPYTFGQGTKLEIK
0.633 relative to dupilumab | 2.29 relative to dupilumab | 1.56 relative to dupilumab | 2.3 relative to dupilumab | 1.02 relative to dupilumab | 1.13 relative to dupilumab | 1.13 relative to dupilumab | 0.941 relative to dupilumab | 0.24 | 150 | 0.84 | 0.00943 | Construct 43 (mAb482) (antibody, IgG4, V domains shown, VH/VL only) VH: EVQLVESGGGLEQPGGSLRLSCAGSGFTFRDFAMTWVRQAPGKGLEWVSSISGGGGNTYYADSVKGRFTISRDNSKNTLYLQMNSLRAEDTAVYYCAKDRLSIAVRPRYYGLDVWGQGTTVTVSS VL: DIVMTQSPLSLPVTPGEPASISCTSSQSLLYSIGYNYVDWYLQKSGQSPQLLIYLGSKRASGVPDRFSGSGSGTDFTLKISRVEAEDVGFYYCMQSLTSPYTFGQGTKLEIK
0.633 relative to dupilumab | 1.89 relative to dupilumab | 1.6 relative to dupilumab | 4.7 relative to dupilumab | 1.16 relative to dupilumab | 1.19 relative to dupilumab | 0.968 relative to dupilumab | 1.01 relative to dupilumab | 0.22 | 136 | 1.11 | 0.0126 | Construct 40 (mAb476) (antibody, IgG4, V domains shown, VH/VL only) VH: EVQLVESGGGLEQPGGSLRLSCAGSGFTFRDFAMTWVRQAPGKGLEWVSSVSGDGGNTYYADSVKGRFTISRDNSKNTLYLQMNSLRAEDTAVYYCAKDRLSKTIRPRYYGLDVWGQGTTVTVSS VL: DIVMTQSPLSLPVTPGEPASISCRSSQSVLYSIGYNYVDWYLQKSGQSPQLLIYLGNKRASGVPDRFSGSGSGTDFTLKISRVEAEDVGFYYCMQAYQSPYVFGQGTKLEIK
